Assay results published in publication PMC9098913, “In vitro reconstitution of Escherichia coli divisome activation” (Nature Communications, 2022).

Tested on: FtsZ filaments
Assay: FtsZ turnover / lifetime / off-rate, single-molecule tracking
Type: biochemical, E. coli
Description: Single-molecule experiments were performed as described previously. In short, individual FtsZ proteins were imaged at single-molecule level by adding small amounts of Cy5-labelled FtsZ (200 pM) to a chamber with 0.2 or 0.4 µM FtsA and 1.25 μM Alexa488-FtsZ.
Single molecules of FtsA or FtsZ were tracked using the TrackMate plugin from ImageJ[43]. To obtain the residence time of FtsZ and FtsA, we performed a residence time analysis as described before[40],[47]. Shortly, single molecules were imaged at different acquisition rates (0.1–2 s) and the lifetime of the molecules was extracted from each data set. To account for photobleaching effect, the obtained lifetimes were plotted against the acquisition rate. […] Furthermore, we extracted the diffusion coefficient of FtsA single molecules at increasing concentrations. For this, we filtered the obtained data, by considering only trajectories which are present on the membrane for more than 0.4 s. […] Subsequently, the diffusion coefficient of FtsA molecules was estimated by fitting an MSD curve to each individual trajectory.

B1: FtsA R286W (protein)
chain: MIKATDRKLVVGLEIGTAKVAALVGEVLPDGMVNIIGVGSCPSRGMDKGGVNDLESVVKCVQRAIDQAELMADCQISSVYLALSGKHISCQNEIGMVPISEEEVTQEDVENVVHTAKSVRVRDEHRVLHVIPQEYAIDYQEGIKNPVGLSGVRMQAKVHLITCHNDMAKNIVKAVERCGLKVDQLIFAGLASSYSVLTEDERELGVCVVDIGGGTMDIAVYTGGALRHTKVIPYAGNVVTSDIAYAFGTPPSDAEAIKVRHGCALGSIVGKDESVEVPSVGGRPPWSLQRQTLAEVIEPRYTELLNLVNEEILQLQEKLRQQGVKHHLAAGIVLTGGAAQIEGLAACAQRVFHTQVRIGAPLNITGLTDYAQEPYYSTAVGLLHYGKESHLNGEAEVEKRVTASVGSWIKRLNSWLRKEF
modifications: Cy3 or Cy5 at the N-terminus in the labelled form (labelled CLEPTGG peptide conjugated to the 5xGly tag by sortagging); unlabelled protein also used; left off: TwinStrep-SUMO, N-terminal, cleaved | 5x
FtsZ turnover compared to the wild-type protein: slightly decreased
